According to US20240261333A1, “NOVEL TARGETS FOR ENHANCING ANTI-TUMOR IMMUNITY” (THE BROAD INSTITUTE, INC., priority 2021, published 2024):

B1: TGM1 (protein)
chain: MMDGPRSDVGRWGGNPLQPPTTPSPEPEPEPDGRSRRGGGRSFWARCCGCCSCRNAADDDWGPEPSDSRGRGSSSGTRRPGSRGSDSRRPVSRGSGVNAAGDGTIREGMLVVNGVDLLSSRSDQNRREHHTDEYEYDELIVRRGQPFHMLLLLSRTYESSDRITLELLIGNNPEVGKGTHVIIPVGKGGSGGWKAQVVKASGQNLNLRVHTSPNAIIGKFQFTVRTQSDAGEFQLPFDPRNEIYILFNPWCPEDIVYVDHEDWRQEYVLNESGRIYYGTEAQIGERTWNYGQFDHGVLDACLYILDRRGMPYGGRGDPVNVSRVISAMVNSLDDNGVLIGNWSGDYSRGTNPSAWVGSVEILLSYLRTGYSVPYGQCWVFAGVTTTVLRCLGLATRTVTNFNSAHDTDTSLTMDIYFDENMKPLEHLNHDSVWNFHVWNDCWMKRPDLPSGFDGWQVVDATPQETSSGIFCCGPCSVESIKNGLVYMKYDTPFIFAEVNSDKVYWQRQDDGSFKIVYVEEKAIGTLIVTKAISSNMREDITYLYKHPEGSDAERKAVETAAAHGSKPNVYANRGSAEDVAMQVEAQDAVMGQDLMVSVMLINHSSSRRTVKLHLYLSVTFYTGVSGTIFKETKKEVELAPGASDRVTMPVAYKEYRPHLVDQGAMLLNVSGHVKESGQVLAKQHTFRLRTPDLSLTLLGAAVVGQECEVQIVFKNPLPVTLTNVVFRLEGSGLQRPKILNVGDIGGNETVTLRQSFVPVRPGPRQLIASLDSPQLSQVHGVIQVDVAPAPGDGGFFSDAGGDSHLGETIPMASRGGA
B2: LUC7L3 (protein, UniProt O95232 1-432, looked up)
Luc7-like protein 3: MISAAQLLDELMGRDRNLAPDEKRSNVRWDHESVCKYYLCGFCPAELFTNTRSDLGPCEKIHDENLRKQYEKSSRFMKVGYERDFLRYLQSLLAEVERRIRRGHARLALSQNQQSSGAAGPTGKNEEKIQVLTDKIDVLLQQIEELGSEGKVEEAQGMMKLVEQLKEERELLRSTTSTIESFAAQEKQMEVCEVCGAFLIVGDAQSRVDDHLMGKQHMGYAKIKATVEELKEKLRKRTEEPDRDERLKKEKQEREEREKEREREREERERKRRREEEEREKERARDRERRKRSRSRSRHSSRTSDRRCSRSRDHKRSRSRERRRSRSRDRRRSRSHDRSERKHRSRSRDRRRSKSRDRKSYKHRSKSRDREQDRKSKEKEKRGSDDKKSSVKSGSREKQSEDTNTESKESDTKNEVNGTSEDIKSEGDTQSN
B3: PSMA3 (protein)
chain: SSIGTGYDLSASTFSPDGRVFQVEYAMKAVENSSTAIGIRCKDGVVFGVEKLVLSKLYEEGSNKRLFNVDRHVGMAVAGLLADARSLADIAREEASNFRSNFGYNIPLKHLADRVAMYVHAYTLYSAVRPFGCSFMLGSYSVNDGAQLYMIDPSGVSYGYWGCAIGKARQAAKTEIEKLQMKEMTCRDIVKEVAKIIYIVHDEVKDKAFELELSWVGELTNGRHEIVPKDIREEAEKYAKESLKEEDESDDDNM
B4: ERLEC1 (protein)
chain: LPQLSDDIPFRVNWPGTEFSLPTTGVLYKEDNYVIMTTAHKEKYKCILPLVTSGDEEEEKDYKGPNPRELLEPLFKQSSCSYRIESYWTYEVCHGKHIRQYHEEKETGQKINIHEYYLGNMLAKNLLFEKEREAEEKEKSNEIPTKNIEGQMTPYYPVGMGNGTPCSLKQNRPRSSTVMYICHPESKHEILSVAEVTTCEYEVVILTPLLCSHPKYRFRASPVNDIFCQSLPGSPFKPLTLRQLEQQEEILRVPFRRNKEEDLQSTKEERFPAIHKSIAIGSQPVLTVGTTHISKLTDDQLIKEFLSGSYCFRGGVGWWKYEFCYGKHVHQYHEDKDSGKTSVVVGTWNQEEHIEWAKKNTARAYHLQDDGTQTVRCKESDSPHAVTVYMLEPHSCQYILGVESPVICKILDTADENGLLSLPN
B5: PURA (protein)
chain: ADRDSGSEQGGAALGSGGSLGHPGSGSGSGGGGGGGGGGGGSGGGGGGAPGGLQHETQELASKRVDIQNKRFYLDVKQNAKGRFLKIAEVGAGGNKSRLTLSMSVAVEFRDYLGDFIEHYAQLGPSQPPDLAQAQDEPRRALKSEFLVRENRKYYMDLKENQRGRFLRIRQTVNRGPGLGSTQGQTIALPAQGLIEFRDALAKLIDDYGVEEEPAELPEGTSLTVDNKRFFFDVGSNKYGVFMRVSEVKPTYRNSITVPYKVWAKFGHTFCKYSEEMKKIQEKQREKRAACEQLHQQQQQQQEETAAATLLLQGEEEGEED
B6: SPARC (protein)
chain: APQQEALPDETEVVEETVAEVTEVSVGANPVQVEVGEFDDGAEETEEEVVAENPCQNHHCKHGKVCELDENNTPMCVCQDPTSCPAPIGEFEKVCSNDNKTFDSSCHFFATKCTLEGTKKGHKLHLDYIGPCKYIPPCLDSELTEFPLRMRDWLKNVLVTLYERDEDNNLLTEKQKLRVKKIHENEKRLEAGDHPVELLARDFEKNYNMYIFPVHWQFGQLDQHPIDGYLSHTELAPLRAPLIPMEHCTTRFFETCDLDNDKYIALDEWAGCFGIKQKDIDKDLVI
B7: NAP1L1 (protein)
chain: ADIDNKEQSELDQDLDDVEEVEEEETGEETKLKARQLTVQMMQNPQILAALQERLDGLVETPTGYIESLPRVVKRRVNALKNLQVKCAQIEAKFYEEVHDLERKYAVLYQPLFDKRFEIINAIYEPTEEECEWKPDEEDEISEELKEKAKIEDEKKDEEKEDPKGIPEFWLTVFKNVDLLSDMVQEHDEPILKHLKDIKVKFSDAGQPMSFVLEFHFEPNEYFTNEVLTKTYRMRSEPDDSDPFSFDGPEIMGCTGCQIDWKKGKNVTLKTIKKKQKHKGRGTVRTVTKTVSNDSFFNFFAPPEVPESGDLDDDAEAILAADFEIGHFLRERIIPRSVLYFTGEAIEDDDDDYDEEGEEADEEGEEEGDEENDPDYDPKKDQNPAEC
B8: CPSF7 (protein)
chain: MSEGVDLIDIYADEEFNQDPEFNNTDQIDLYDDVLTATSQPSDDRSSSTEPPPPVRQEPSPKPNNKTPAILYTYSGLRNRRAAVYVGSFSWWTTDQQLIQVIRSIGVYDVVELKFAENRANGQSKGYAEVVVASENSVHKLLELLPGKVLNGEKVDVRPATRQNLSQFEAQARKRECVRVPRGGIPPRAHSRDSSDSADGRATPSENLVPSSARVDKPPSVLPYFNRPPSALPLMGLPPPPIPPPPPLSSSFGVPPPPPGIHYQHLMPPPPRLPPHLAVPPPGAIPPALHLNPAFFPPPNATVGPPPDTYMKASAPYNHHGSRDSGPPPSTVSEAEFEDIMKRNRAISSSAISKAVSGASAGDYSDAIETLLTAIAVIKQSRVANDERCRVLISSLKDCLHGIEAKSYSVGASGSSSRKRHRSRERSPSRSRESSRRHRDLLHNEDRHDDYFQERNREHERHRDRERDRHH
B9: TTC13 (protein)
chain: MAPAGCCCCCCFWGGAVAAAGAARRVLLLLLLGVLSAGLRPGALATEHYSPLSLLKQELQHRQQQEAPAGGGGCSPQSGDWGDQYSAECGESSFLNFHDSDCEPKGSSPCDSLLSLNTEKILSQAKSIAEQKRFPFATDNDSTNEELAIAYVLIGSGLYDEAIRHFSTMLQILSPLGRINEAVNDLTKAIQLQPSARLYRHRGTLYFISEDYATAHEDFQQSLELNKNQPIAMLYKGLTFFHRGLLKEAIESFKEALKQKVDFIDAYKSLGQAYRELGNFEAATESFQKALLLNQNHVQTLQLRGMMLYHHGSLQEALKNFKRCLQLEPYNEVCQYMKGLSHVAMGQFYEGIKAQTKVMLNDPLPGQKASPEYLKVKYLREYSRYLHAHLDTPLTEYNIDVDLPGSFKDHWAKNLPFLIEDYEEQPGLQPHIKDVLHQNFESYKPEVQELICVADRLGSLMQYETPGFLPNKRIHRAMGLAALEVMQAVQRTWTNSKVRMNGKTRLMQWRDMFDIAVKWRRIADPDQPVLWLDQMPARSLSRGFNNHINLIRGQVINMRYLEYFEKILHFIKDRILVYHGANNPKGLLEVREALEKVHKVEDLLPIMKFNTKTKDGFTVNTKVPSLKDQGKEYDGFTITITGDKVGNILFSVETQTTEERTQLYHAEIDALYKDLTAKGKVLILSSEFGEADAVCNLILSLVYYFYNLMPLSRGSSVIAYSVIVGALMASGKEVAGKIPKGKLVDFEAMTAPGSEAFSKVAKSWMNLKSISPSYKTLPSVSETFPTLRSMIEVLNTDSSPRCLKKL

Target: T1, B3GNT2 (Homo sapiens, UniProt Q9NY97)
T1 construct: The respective ORFs of candidate genes [CD274 (NM_014143), MCL1 (NM_021960), JUNB (NM_002229), and B3GNT2 (NM_006577)] were synthesized; expressed in transfected cells; host or cells: A375 melanoma cells (lentiviral ORF overexpression)
T1 sequence (Q9NY97 1-397): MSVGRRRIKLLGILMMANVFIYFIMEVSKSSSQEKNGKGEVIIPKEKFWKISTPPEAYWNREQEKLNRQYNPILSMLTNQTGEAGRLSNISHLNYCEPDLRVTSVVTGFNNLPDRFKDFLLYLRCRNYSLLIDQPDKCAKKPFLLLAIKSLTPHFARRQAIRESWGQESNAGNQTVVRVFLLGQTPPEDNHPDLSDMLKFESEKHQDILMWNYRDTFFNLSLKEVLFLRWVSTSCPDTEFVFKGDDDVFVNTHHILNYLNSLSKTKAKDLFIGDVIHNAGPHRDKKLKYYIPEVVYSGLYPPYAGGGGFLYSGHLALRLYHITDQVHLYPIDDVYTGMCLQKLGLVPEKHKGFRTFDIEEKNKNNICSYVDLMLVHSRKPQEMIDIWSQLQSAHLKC
Assay: Co-IP of FLAG-tagged B3GNT2 followed by mass spectrometry
Format: cell-based
Set-up: C-term IgG / C-term flag: unit not given here
Procedure, shortened: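 FLAG-tagged B3GNT2 immunoprecipitated from cell lysate (HEPES, 1% Triton X-100, 150 mM NaCl) with anti-FLAG versus […], overnight at 4° C, then captured on Protein A/G magnetic beads for 4 h. Two biological replicates per condition. Peptides fractionated and analyzed by nano-LC on an Orbitrap Elite in data-dependent mode.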

[1] = Co-IP followed by mass spectrometry of B3GNT2, C-term tag, FLAG pull-down
[2] = Co-IP followed by mass spectrometry of B3GNT2, C-term tag, IgG pull-down
[3] = Co-IP followed by mass spectrometry of B3GNT2, N-term tag, FLAG pull-down
[4] = Co-IP followed by mass spectrometry of B3GNT2, N-term tag, IgG pull-down

Molecule | C-term flag [1] | C-term IgG [2] | N-term FLAG [3] | N-term IgG [4] | C-term flag (Co-IP with FLAG antibody, C-terminally FLAG-tagged B3GNT2, mass spectrometry count, unit not given) | N-term FLAG (Co-IP with FLAG antibody, N-terminally FLAG-tagged B3GNT2, mass spectrometry count, unit not given) | C-term IgG (Co-IP with IgG control antibody, C-terminally FLAG-tagged B3GNT2, mass spectrometry count, unit not given) | N-term IgG (Co-IP with IgG control antibody, N-terminally FLAG-tagged B3GNT2, mass spectrometry count, unit not given)
B1 | 8 | 10 | 17 | 9 | – | – | – | –
B2 | 3 | 3 | 4 | 2 | – | – | – | –
B3 | 0 | 0 | 4 | 0 | – | – | – | –
B4 | – | – | – | – | 3 | 0 | 0 | 0
B5 | 3 | 0 | 0 | 2 | – | – | – | –
B6 | 4 | 0 | 0 | 0 | – | – | – | –
B7 | 4 | 0 | 0 | 0 | – | – | – | –
B8 | 9 | 9 | 12 | 8 | – | – | – | –
B9 | 4 | 0 | 0 | 0 | – | – | – | –
